Data as given in patent US20060088549A1, “Chimeric virus vaccine” (priority 2004, published 2006).
“Also recorded” adds a separate entry of the source.

Assays:
2F5 = conditions: cited from earlier work; for binding/affinity to 2F5 relative to the LELDKWASL peptide: Tian, 2003
[1] = target: HRV14:HIV-1 gp41 […] chimeric virus 14-B128-12; test: cell-based or functional assay
[2] = target: HRV14:HIV-1 gp41 […] chimeric virus 14-B128-22; test: cell-based or functional assay
[3] = target: HRV14:HIV-1 gp41 […] chimeric virus 14-B128-23; test: cell-based or functional assay
[4] = target: HRV14:HIV-1 gp41 […] chimeric virus 14-B64-5; test: cell-based or functional assay
[5] = target: HRV14:HIV-1 gp41 […] chimeric virus 14-C1000-1; test: cell-based or functional assay
[6] = target: HRV14:HIV-1 gp41 […] chimeric virus 14-C4000-1 (human rhinovirus type 14) (UniProt P03303); test: cell-based or functional assay
[7] = target: HRV14:HIV-1 gp41 […] chimeric virus 14-C4000-14; test: cell-based or functional assay
[8] = target: HRV14:HIV-1 gp41 […] chimeric virus 14-C512-2; test: cell-based or functional assay
[9] = target: HRV14:HIV-1 gp41 […] chimeric virus 14-C512-3; test: cell-based or functional assay
[10] = target: HRV14:HIV-1 gp41 […] chimeric virus 22-AN15000-8; test: cell-based or functional assay
[11] = target: HRV14:HIV-1 gp41 […] chimeric virus 24-AN15000-3; test: cell-based or functional assay
[12] = target: HRV14:HIV-1 gp41 […] chimeric virus 44-B256-2; test: cell-based or functional assay
[13] = target: HRV14:HIV-1 gp41 […] chimeric virus 44-B4000-13; test: cell-based or functional assay
[14] = target: HRV14:HIV-1 gp41 […] chimeric virus 44-B64-12; test: cell-based or functional assay
[15] = target: HRV14:HIV-1 gp41 […] chimeric virus 44-B64-14; test: cell-based or functional assay
[16] = target: HRV14:HIV-1 gp41 […] chimeric virus 44-B64-4; test: cell-based or functional assay
[17] = target: HRV14:HIV-1 gp41 […] chimeric virus 44-BN30000-2; test: cell-based or functional assay
[18] = target: HRV14:HIV-1 gp41 […] chimeric virus 44-BN30000-9; test: cell-based or functional assay
[19] = target: HRV14:HIV-1 gp41 […] chimeric virus 44-BN7500-4; test: cell-based or functional assay
[20] = target: HRV14:HIV-1 gp41 […] chimeric virus 44-C4000-4 (human rhinovirus type 14) (UniProt P03303); test: cell-based or functional assay
[21] = target: HRV14:HIV-1 gp41 […] chimeric virus 64-B256-2; test: cell-based or functional assay
[22] = target: HRV14:HIV-1 gp41 […] chimeric virus 64-B32-3; test: cell-based or functional assay
[23] = target: HRV14:HIV-1 gp41 […] chimeric virus 64-B32-4; test: cell-based or functional assay
[24] = target: HRV14:HIV-1 gp41 […] chimeric virus 64-C16-2; test: cell-based or functional assay
[25] = target: HRV14:HIV-1 gp41 […] chimeric virus 64-C32-3; test: cell-based or functional assay
[26] = target: Biotin-conjugated …-NH2 (HIV-1); test: direct ELISA, IgG on immobilized biotinylated …; conditions: scale: reciprocal dilution of 1 mg/ml IgG at OD450 of 0.5

Ac-CENEQELLELDKWASL-NH2 [Linear-1]
binding/affinity to 2F5 relative to the LELDKWASL peptide (2F5): higher affinities to 2F5

Ac-CNEQELLEKDKWADL-NH2 (lactam (positions not given here); also: lactam bridge between underlined K and D, places not given here) [Lac-1, constrained peptide with a lactam bridge between K and D residues]
binding/affinity to 2F5 relative to the LELDKWASL peptide (2F5): higher affinities to 2F5; also recorded: two times more tightly

LELDKWASL
binding to 2F5 in an ELISA relative to the shorter ELDKWAS peptide (2F5; Tian et al., 2002): ~100 fold

human mAb 2F5 (antibody)
2F5 IC50, microtiter neutralization assay [1]: 0.49 µg/mL
2F5 IC50, microtiter neutralization assay [2]: 0.57 µg/mL
2F5 IC50, microtiter neutralization assay [3]: 5.9 µg/mL
2F5 IC50, microtiter neutralization assay [4]: 0.29 µg/mL
2F5 IC50, microtiter neutralization assay [5]: 1.5 µg/mL
2F5 IC50, microtiter neutralization assay [6]: 0.98 µg/mL
2F5 IC50, microtiter neutralization assay [7]: 0.64 µg/mL
2F5 IC50, microtiter neutralization assay [8]: 0.05 µg/mL
2F5 IC50, microtiter neutralization assay [9]: 3 µg/mL
2F5 IC50, microtiter neutralization assay [10]: 8.2 µg/mL
2F5 IC50, microtiter neutralization assay [11]: 1.5 µg/mL
2F5 IC50, microtiter neutralization assay [12]: 0.31 µg/mL
2F5 IC50, microtiter neutralization assay [13]: 0.24 µg/mL
2F5 IC50, microtiter neutralization assay [14]: 0.21 µg/mL
2F5 IC50, microtiter neutralization assay [15]: 0.16 µg/mL
2F5 IC50, microtiter neutralization assay [16]: 0.06 µg/mL
2F5 IC50, microtiter neutralization assay [17]: 0.01 µg/mL
2F5 IC50, microtiter neutralization assay [18]: 0.02 µg/mL
2F5 IC50, microtiter neutralization assay [19]: 0.01 µg/mL
2F5 IC50, microtiter neutralization assay [20]: 0.66 µg/mL
2F5 IC50, microtiter neutralization assay [21]: 0.23 µg/mL
2F5 IC50, microtiter neutralization assay [22]: 0.05 µg/mL
2F5 IC50, microtiter neutralization assay [23]: 0.49 µg/mL
2F5 IC50, microtiter neutralization assay [24]: 0.07 µg/mL
2F5 IC50, microtiter neutralization assay [25]: 0.05 µg/mL
… binding [26]: 2400
